Values joined by “and” are separate entries in the source; they are usually repeats but may differ in a detail not shown here. Identical values can stand only once. Like-named read-outs stand apart in the source and are kept apart here. Marks after values point to notes of the source that are not given here.
Legend:
[1] = target: binding of the benchmark (BM2) to human CD40 (Homo sapiens, UniProt P25942); test: Benchmark blocking competitive ELISA; conditions: in words, FIG. 6
Protocol: The ability of the anti-CD40 antibody of the present application to block the binding of the benchmark to human CD40 was determined by competitive ELISA. Briefly, BM2 antibody was immobilized on a 96-well micro plates at 1 μg/mL in PBS, 100 µL/well, and incubated overnight at 4° C. The next day, the plate was washed once with a washing buffer before a blocking buffer (PBST containing 5% w/v of skim milk) was added. The plate was then incubated at 37° C. for 2 h for blocking. During the blocking of the 96-well plate, the anti-CD40 antibody of the present application or the benchmark was serially 5-fold diluted from 66.7 nM with a biotinylated human CD40-Fc protein (amino acid residues 21-193 of SEQ ID NO: 30 linked to the N terminus of amino acid residues 99-330 of SEQ ID NO: 28, dissolved in PBST containing 2.5% w/v of skim milk at a concentration of 0.23 nM) and then incubated at room temperature for 40 min. After the plate was washed 4 times, the antibody/biotinylated human CD40-Fc mixture was added at 100 μL/well to the plate coated with BM2. The plate was incubated at 37° C. for 40 min and again washed 4 times with the washing buffer. […] The absorbance was read on a microplate reader using the dual wavelength mode (TMB detection wavelength: 450 nm, reference wavelength: 630 nm). […] Data were analyzed using Graphpad Prism software, and IC50 values were obtained.

[2] = target: T1, Human CD40-his (Homo sapiens, UniProt P25942); test: Octet kinetics of humanized C1H1 antibodies; type: binding; conditions: Table 3, Octet; for Ka: humanized antibodies in cell supernatant, chimeric and benchmark 5 μg/mL
T1 construct: His; purchased Acro biosystems CD0-H5228
Protocol: After six days of culture in a shake flask, the cell supernatant containing the humanized antibodies huC1H1-V1 to huC1H1-V4 was harvested and the binding affinity of the antibodies to human CD40 was determined on an Octet system (Fortebio, Octet RED 96) according to the following procedures. Briefly, an anti-human IgG Fc capture (AHC) biosensor (from ForteBio) was pre-soaked in a 10 mM glycine solution (pH 1.5) for 3 s, and then soaked in a running buffer (PBST containing 0.5% w/v of BSA) for 3 s. The pre-soaking and soaking procedures were repeated 3 times. Then, the sensor was soaked in the cell supernatant containing the humanized anti-CD40 antibody, chimeric antibody C1H1 dissolved in HBS-EP^+ buffer at a concentration of 5 μg/mL, or the benchmark dissolved in HBS-EP^+ buffer at a concentration of 5 μg/mL for 120 s, and then soaked in the running buffer for 5 min. The new baseline was run in the running buffer for 180 s. The sensor was then soaked for 120 s in human CD40-his protein (Acro biosystems, Cat. No. CD0-H5228) 2-fold serially diluted from 40 nM in the running buffer and for 10 min in the running buffer […]. Finally, the sensor was pre-soaked in a 10 mM glycine solution (pH 1.5) for 3 s, and then soaked in the running buffer for 3 s. The pre-soaking and soaking procedures were repeated 3 times. The association and dissociation curves were fitted to a 1:1 Langmuir binding model using ForteBio Data Analysis 8.1.

[3] = tested on: human B-cell lymphoma Ramos cells; test: In vivo anti-tumor efficacy, human B-cell lymphoma Ramos xenograft model; conditions: for Tumor volume on day 0: baseline at grouping; for Tumor volume on day 0 / Tumor volume on day 14: mean ± standard error; for TGI: day 14; for T/C: day 14 vs isotype control
Protocol: The in vivo anti-tumor activity of antibody huC1H1-V2 was measured in NOD-SCID mice. Briefly, 3×10^7 human B-cell lymphoma Ramos cells (Chinese Academy of Sciences) were injected subcutaneously in the right axilla of NOD-SCID mice. The tumor volume was measured using an electronic vernier caliper and calculated according to the formula (length×width^2)/2. When the mean tumor volume reached about 100-150 mm^3, 40 tumor-bearing mice were selected and randomly divided into 4 groups (10 mice per group), with the date of grouping designated as day 0. According to the administration regimen shown in Table 6, the mice were intravenously administered with the isotype control antibody (anti-HEL-Human IgG2 Isotype-control, also referred to as IgG2, Biointron Inc.) or antibody huC1H1-V2 via tail veins since day 0.

[4] = tested on: mouse colon carcinoma MC38 cells; test: In vivo anti-tumor efficacy, colon carcinoma MC38 xenograft model; conditions: for Tumor volume on day 0: baseline at grouping; for Tumor volume on day 0 / Tumor volume on day 14: mean ± standard error; for T/C: TRTV/CRTV, day 14 vs solvent; for TGI: day 14
Protocol: The in vivo anti-tumor activity of antibody huC1H1-V2 was further determined in humanized CD40 transgenic mice (also referred to as hCD40 mice). Briefly, 1×10^6 mouse colon carcinoma MC38 cells (Shanghai Lanli Biotech, LTD., CO.) were injected subcutaneously on the right back of hCD40 mice. The tumor volume was measured using an electronic vernier caliper and calculated according to the formula (length×width^2)/2. When the mean tumor volume reached about 100 mm^3, 18 tumor-bearing mice were selected and randomly divided into 3 groups (6 mice per group), with the date of grouping designated as day 0. According to the administration regimen shown in Table 8, the mice were intravenously administered with the solvent (phosphate buffered saline, or PBS) or antibody huC1H1-V2 via tail veins since day 1.

T1 sequence (P25942 21-277): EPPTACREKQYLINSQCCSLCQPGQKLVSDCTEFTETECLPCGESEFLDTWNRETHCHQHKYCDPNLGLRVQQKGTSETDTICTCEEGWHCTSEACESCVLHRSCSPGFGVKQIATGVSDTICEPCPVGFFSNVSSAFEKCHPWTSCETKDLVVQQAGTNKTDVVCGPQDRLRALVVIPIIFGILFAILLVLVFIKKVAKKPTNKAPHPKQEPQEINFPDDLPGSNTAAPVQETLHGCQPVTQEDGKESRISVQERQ
Sequence of binding of the benchmark (BM2) to human CD40 (P25942 21-193): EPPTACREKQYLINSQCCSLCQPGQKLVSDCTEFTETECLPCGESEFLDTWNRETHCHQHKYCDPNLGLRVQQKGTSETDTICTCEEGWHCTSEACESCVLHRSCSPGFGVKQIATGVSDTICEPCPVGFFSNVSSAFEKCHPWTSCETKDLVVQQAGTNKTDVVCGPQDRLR

B1: huC1H1-V1: humanized C1H1 anti-CD40 antibody, VH SEQ ID NO: 20 X1=A, VL SEQ ID NO: 24 X1=K X2=F, human IgG2/κ (antibody, V domains shown)
VH: EVQLVESGGGLVKPGGSLRLSCAASGFTFSNYGISWVRQAPGKGLEWVXSISSGGDNTYYPDNVKGRFTISRDNAKNSLYLQMNSLRAEDTAVYYCARAGEKAMDYWGQGTLVTVSS
VL: EIVLTQSPATLSLSPGERATLSCRASQTINNNLHWYQQKPGQAPRLLIXYASQSISGIPARFSGSGSGTDFTLTISSLEPEDFAVYXCQQFSSWPLTFGGGTKVEIK
modifications: not fully specified; human IgG2/kappa constant regions; VH of huC1H1-V1 to huC1H1-V4; VARIANT 49 X can be A or S; VL of huC1H1-V1 to huC1H1-V4; VARIANT 49 X can be K or Y; VARIANT 87 X can be F or Y
[1]
  Blocking of the binding of human CD40 to BM2: able to block the binding of human CD40 to BM2
[2]; dissociation rate
  Kd: 0.00128 s⁻¹
[2]
  Ka: 1.41e+06 M⁻¹ s⁻¹
[2]; read-out: KD
  Kd: 0.904 nM

B2: huC1H1-V2: humanized C1H1 anti-CD40 antibody, VH SEQ ID NO: 20 X1=S, VL SEQ ID NO: 24 X1=K X2=F, human IgG2/κ (antibody, V domains shown)
VH: EVQLVESGGGLVKPGGSLRLSCAASGFTFSNYGISWVRQAPGKGLEWVXSISSGGDNTYYPDNVKGRFTISRDNAKNSLYLQMNSLRAEDTAVYYCARAGEKAMDYWGQGTLVTVSS
VL: EIVLTQSPATLSLSPGERATLSCRASQTINNNLHWYQQKPGQAPRLLIXYASQSISGIPARFSGSGSGTDFTLTISSLEPEDFAVYXCQQFSSWPLTFGGGTKVEIK
modifications: not fully specified; variable positions X1=S; VL X1=K X2=F; IgG2/kappa constant; VH of huC1H1-V1 to huC1H1-V4; VARIANT 49 X can be A or S; VL of huC1H1-V1 to huC1H1-V4; VARIANT 49 X can be K or Y; VARIANT 87 X can be F or Y
[1]
  Blocking of the binding of human CD40 to BM2: able to block the binding of human CD40 to BM2
[2]; dissociation rate
  Kd: 0.000981 s⁻¹
[2]
  Ka: 1.65e+06 M⁻¹ s⁻¹
[2]; read-out: KD
  Kd: 0.596 nM
[3]; 1.5 mg/kg i.v. Q2D × 8 doses
  Tumor volume on day 0: 111.1 ± 2.0 mm^3
  Tumor volume on day 14: 431.9 ± 58.0*** mm^3
[3]; 1.5 mg/kg i.v. Q2D
  TGI: 88%
  T/C: 12%
[3]; 5 mg/kg i.v. Q2D × 8 doses
  Tumor volume on day 0: 114.5 ± 1.5 mm^3
  Tumor volume on day 14: 230.2 mm^3 and 230.2 ± 36.3*** mm^3
[3]; 5 mg/kg i.v. Q2D
  TGI: 96%
  T/C: 4%
[3]; 15 mg/kg i.v. Q2D × 8 doses
  Tumor volume on day 0: 114.3 ± 1.3 mm^3
  Tumor volume on day 14: 242.5 ± 22.1*** mm^3
[3]; 15 mg/kg i.v. Q2D
  TGI: 95%
  T/C: 5%
[3]; 1.5, 5, 15 mg/kg i.v. Q2D × 8 doses, tumor-bearing mice
  Tolerability (weight loss or other symptoms): well tolerated
[4]; 3 mg/kg i.v. Q2D × 7 doses
  Tumor volume on day 0: 111 ± 5 mm^3
  Tumor volume on day 14: 1169 mm^3 and 1169 ± 217** mm^3
[4]; 3 mg/kg i.v. Q2D
  T/C: 36%
  TGI: 64%
[4]; 10 mg/kg i.v. Q2D × 7 doses
  Tumor volume on day 0: 113 ± 8 mm^3
  Tumor volume on day 14: 1446 mm^3 and 1446 ± 467* mm^3
[4]; 10 mg/kg i.v. Q2D
  T/C: 44%
  TGI: 56%
[4]; 3 and 10 mg/kg i.v. Q2D × 7 doses, tumor-bearing mice
  Tolerability (weight loss or any symptoms): well tolerated
